{"source": "patent US20080311575A1", "about": "“Modulation of Muci-Dependent Anti-Estrogen Resistance” (priority 2005, published 2008)", "key": {"[1]": {"test_system": "ERα-mediated transcription (ERE-tk-Luc)", "assay": "ERE-tk-Luc reporter assay in MCF-7/CsiRNA and MCF-7/MUC1siRNA-A cells", "type": "cell-based, human", "settings": "MCF-7/CsiRNA versus MCF-7/MUC1siRNA-A cells, 100 nM E2 for 24 h"}, "ERα": {"test_system": "ERα", "assay": "Immunoblot of ERα levels in MCF-7 and ZR-75-1 cells", "type": "cell-based, human", "settings": "MG132 5 mM for 24 h", "description": "FIGS. 5A-D. MUC1 stabilizes ERα. FIG. 5A. Lysates from the indicated MCF-7 (left) and ZR-75-1 (right) cells were immunoblotted with anti-ERa, anti-MUC1-C and anti-β-actin. WT: wild-type cells. FIGS. 5B and C. The indicated MCF-7 (left) and ZR-75-1 (right) cells were treated with 5 mM MG132 for 24 h. Lysates were subjected to immunoblotting with the indicated antibodies FIG. 5B. […] Lysates were immunoprecipitated with anti-ERα and the precipitates were analyzed by SDS-PAGE and autoradiography. A higher amount of MCF-7/MUC1siRNA cell lysate was used for immunoprecipitation to increase the ERα signals. Lysates not subjected to immunoprecipitation were immunoblotted with anti-β-actin. Intensity of the signals as determined by densitometric scanning is presented as the percentage of ERα remaining over time relative to control at 0 h.\nCoimmunoprecipitation and immunoblotting."}, "breast cancer cells": {"test_system": "breast cancer cells", "assay": "Induction of apoptosis in breast cancer cells", "type": "cell-based, human", "settings": "both cell types (MCF-7, ZR-75-1); data not shown"}, "breast cancer": {"test_system": "breast cancer", "settings": "patients with high ER and PgR expression levels; cited from earlier work"}, "[2]": {"biological_target": "T1, estrogen receptor α (ERα), expressed in cells (human, UniProt P03372 1-595)", "T1 sequence": "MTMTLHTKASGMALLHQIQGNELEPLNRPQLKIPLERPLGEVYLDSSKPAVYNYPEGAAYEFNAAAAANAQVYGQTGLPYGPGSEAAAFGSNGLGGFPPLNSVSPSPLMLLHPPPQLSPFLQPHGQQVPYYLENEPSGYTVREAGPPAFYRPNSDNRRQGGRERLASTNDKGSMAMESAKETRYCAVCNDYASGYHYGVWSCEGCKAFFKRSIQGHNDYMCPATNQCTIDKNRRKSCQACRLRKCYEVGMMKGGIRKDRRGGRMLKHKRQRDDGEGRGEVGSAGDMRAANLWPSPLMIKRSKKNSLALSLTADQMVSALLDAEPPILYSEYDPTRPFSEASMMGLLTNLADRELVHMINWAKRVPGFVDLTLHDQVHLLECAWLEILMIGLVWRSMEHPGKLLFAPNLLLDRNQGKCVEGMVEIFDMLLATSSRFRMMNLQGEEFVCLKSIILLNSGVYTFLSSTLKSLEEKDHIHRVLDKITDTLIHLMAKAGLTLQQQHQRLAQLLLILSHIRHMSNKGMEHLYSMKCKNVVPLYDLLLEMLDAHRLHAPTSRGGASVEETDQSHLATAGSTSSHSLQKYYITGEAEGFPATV", "assay": "cell-based or functional assay"}, "[3]": {"biological_target": "T2, proliferating cell nuclear antigen (PCNA) (human, UniProt P12004 1-261)", "T2 construct": "Precipitated from lysates with anti-PCNA as a control", "T2 sequence (P12004 whole entry)": "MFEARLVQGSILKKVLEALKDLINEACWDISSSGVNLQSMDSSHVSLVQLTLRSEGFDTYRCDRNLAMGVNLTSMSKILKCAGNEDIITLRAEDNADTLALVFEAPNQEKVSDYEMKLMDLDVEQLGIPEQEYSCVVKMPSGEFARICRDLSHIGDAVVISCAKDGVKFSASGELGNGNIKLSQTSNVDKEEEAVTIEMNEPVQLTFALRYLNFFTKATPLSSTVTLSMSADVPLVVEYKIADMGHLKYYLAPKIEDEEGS", "assay": "coimmunoprecipitation: anti-PCNA precipitates of cell lysates, immunoblot with anti-MUC1-C"}, "[4]": {"biological_target": "T3, 35S-labeled ERα(Δ186-281) (Homo sapiens (Human), UniProt P03372 1-595, 35S-labeled in in vitro transcription/translation (TNT) reactions)", "T3 construct": "Internal deletion of residues 186-281, devoid of the DBD", "T3 sequence": "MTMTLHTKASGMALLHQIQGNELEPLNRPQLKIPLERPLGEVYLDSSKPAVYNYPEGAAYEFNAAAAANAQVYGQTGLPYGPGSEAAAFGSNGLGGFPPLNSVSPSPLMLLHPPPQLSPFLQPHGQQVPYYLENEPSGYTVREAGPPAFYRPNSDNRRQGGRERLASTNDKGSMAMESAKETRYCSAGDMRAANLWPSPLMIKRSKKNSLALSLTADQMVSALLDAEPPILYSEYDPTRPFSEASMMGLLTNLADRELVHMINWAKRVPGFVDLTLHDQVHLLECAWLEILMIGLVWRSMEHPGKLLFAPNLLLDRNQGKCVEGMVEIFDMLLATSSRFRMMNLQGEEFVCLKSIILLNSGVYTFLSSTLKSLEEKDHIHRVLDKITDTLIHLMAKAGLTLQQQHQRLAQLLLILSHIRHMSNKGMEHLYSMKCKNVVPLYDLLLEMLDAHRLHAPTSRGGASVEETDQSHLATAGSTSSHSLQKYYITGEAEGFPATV", "assay": "GST pull-down on glutathione beads, 35S-labeled ERα deletion mutant, phosphoimaging"}, "35S-labeled ERα(1-185)": {"biological_target": "T4, 35S-labeled ERα(1-185) (Homo sapiens (Human), UniProt P03372 1-185, 35S-labeled in in vitro transcription/translation (TNT) reactions)", "T4 construct": "Deletion mutant that contains the AF1 domain", "T4 sequence": "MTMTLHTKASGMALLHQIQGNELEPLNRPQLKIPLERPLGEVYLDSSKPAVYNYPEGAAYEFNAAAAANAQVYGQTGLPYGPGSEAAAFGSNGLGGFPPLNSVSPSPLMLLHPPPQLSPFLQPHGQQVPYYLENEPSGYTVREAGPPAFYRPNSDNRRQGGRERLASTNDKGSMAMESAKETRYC", "assay": "GST pull-down on glutathione beads, 35S-labeled ERα deletion mutant, phosphoimaging"}, "35S-labeled ERα(282-595)": {"biological_target": "T5, 35S-labeled ERα(282-595) (Homo sapiens (Human), UniProt P03372 282-595, 35S-labeled in in vitro transcription/translation (TNT) reactions)", "T5 sequence": "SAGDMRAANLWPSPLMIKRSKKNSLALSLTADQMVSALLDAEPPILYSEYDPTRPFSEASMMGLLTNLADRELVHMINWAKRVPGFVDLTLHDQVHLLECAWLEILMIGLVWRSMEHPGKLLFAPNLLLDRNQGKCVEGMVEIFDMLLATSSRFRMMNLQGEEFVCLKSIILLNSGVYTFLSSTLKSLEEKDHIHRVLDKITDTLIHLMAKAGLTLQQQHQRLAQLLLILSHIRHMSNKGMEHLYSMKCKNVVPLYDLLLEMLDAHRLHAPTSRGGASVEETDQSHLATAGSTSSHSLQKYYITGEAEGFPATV", "assay": "GST pull-down on glutathione beads, 35S-labeled ERα deletion mutant, phosphoimaging"}, "[5]": {"biological_target": "T6, 35S-labeled full-length ERα(1-595) (Homo sapiens (Human), UniProt P03372 1-595, 35S-labeled in in vitro transcription/translation (TNT) reactions)", "T6 construct": "In vitro translated from pcDNA3.1-ERα; also called 35S-labeled ERα", "T6 sequence": "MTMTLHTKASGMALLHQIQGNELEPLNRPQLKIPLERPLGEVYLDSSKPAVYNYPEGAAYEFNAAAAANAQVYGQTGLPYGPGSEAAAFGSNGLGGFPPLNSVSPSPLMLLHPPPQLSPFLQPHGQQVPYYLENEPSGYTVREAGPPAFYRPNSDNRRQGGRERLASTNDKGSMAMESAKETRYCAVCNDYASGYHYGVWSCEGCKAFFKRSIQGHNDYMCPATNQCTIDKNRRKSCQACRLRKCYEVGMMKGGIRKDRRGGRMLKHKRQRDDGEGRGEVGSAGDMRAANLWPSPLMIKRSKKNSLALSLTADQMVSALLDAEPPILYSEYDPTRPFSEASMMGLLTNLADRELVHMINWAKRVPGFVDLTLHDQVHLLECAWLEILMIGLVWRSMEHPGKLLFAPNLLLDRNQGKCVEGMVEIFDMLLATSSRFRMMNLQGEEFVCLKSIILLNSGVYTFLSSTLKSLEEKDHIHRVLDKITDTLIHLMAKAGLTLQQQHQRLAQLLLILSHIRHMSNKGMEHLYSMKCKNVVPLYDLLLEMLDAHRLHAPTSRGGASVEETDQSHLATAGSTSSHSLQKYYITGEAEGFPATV", "assay": "GST pull-down on glutathione beads, 35S-labeled full-length ERα, phosphoimaging", "description": "To localize the region within MUC1-CD that interacts with ERα, ³⁵S-labeled full length ERα was incubated with deletion mutants of MUC1-CD."}}, "note": "Residues, ends and D or L forms follow the SMILES beside them. *: point of attachment. Cbz = O=C(OCc1ccccc1)*"}
{"molecule": "C[C@]12CC[C@@H]3c4ccc(O)cc4CC[C@H]3[C@@H]1CC[C@@H]2O", "note": "[E2, 17β-estradiol]", "values": [{"measurement": "MUC1-dependent activation of ERE-tk-Luc", "setting": "[1]", "result": "~5", "unit": "fold"}]}
{"molecule": "C[C@]12CC[C@@H]3c4ccc(O)cc4C[C@@H](CCCCCCCCC[S+]([O-])CCCC(F)(F)C(F)(F)F)[C@H]3[C@@H]1CC[C@@H]2O", "note": "(some centres unmarked) [ICI, ICI 182,780]", "values": [{"measurement": "effect on ERα expression (immunoblot)", "setting": "ERα", "result": "down-regulation of ERα"}]}
{"molecule": "CC(C)C[C@@H](C=O)NC(=O)[C@H](CC(C)C)NC(=O)[C@H](CC(C)C)NC(=O)OCc1ccccc1", "note": "[MG132] (Cbz-Leu-Leu-Leu-aldehyde)", "values": [{"measurement": "effect on ERα expression (immunoblot)", "setting": "ERα", "result": "increases in ERα expression"}]}
{"molecule": "CC/C(=C(\\c1ccccc1)c1ccc(OCCN(C)C)cc1)c1ccccc1", "note": "[TAM, tamoxifen]", "values": [{"measurement": "induction of apoptosis", "setting": "breast cancer cells", "result": "≤ 10", "unit": "%"}, {"measurement": "overall response rate", "setting": "breast cancer", "result": "≤ 70", "unit": "%"}]}
{"molecule": "MUC1 C-terminal subunit (MUC1-C) (other, Endogenous ~20-25 kDa MUC1-C in lysates of human breast cancer cells) SVVVQLTLAFREGTINVHDVETQFNQYKTEAASRYNLTISDVSVSDVPFPFSAQSGAGVPGWGIALLVLVCVLVALAIVYLIALAVCQCRRKNYGQLDIFPARDTYHPMSEYPTYHTHGRYVPPSSTDRSPYEKVSAGNGGSSLSYTNPAVAATSANL", "values": [{"measurement": "MUC1-dependent activation of ERE-tk-Luc (luciferase reporter, MCF-7/CsiRNA against MCF-7/MUC1siRNA-A cells stimulated with E2)", "setting": "[2]", "result": "~5", "unit": "fold"}, {"measurement": "binding result", "setting": "[3]", "result": "no binding"}]}
{"molecule": "GST-MUC1-CD(1-72) (other, not shown: a dimerising Fc or GST, also called full-length MUC1-CD) CQCRRKNYGQLDIFPARDTYHPMSEYPTYHTHGRYVPPSSTDRSPYEKVSAGNGGSSLSYTNPAVAATSANL", "values": [{"measurement": "binding result", "setting": "[4]", "result": "no binding"}, {"measurement": "binding result", "setting": "35S-labeled ERα(1-185)", "result": "no binding"}, {"measurement": "binding result", "setting": "35S-labeled ERα(282-595)", "result": "no binding"}]}
{"molecule": "CQCRRKNYEKVSAGNGGSSLSYTNPAVAATSANL (other, not shown: a dimerising Fc or GST; large carriers; small tags and cut ends, also called MUC1-CD deletion mutant (amino acids 9 to 46 deleted))", "note": "[GST-MUC1-CD with deletion of amino acids 9 to 46]", "values": [{"measurement": "binding result", "setting": "[5]", "result": "no binding"}]}
